Test results taken from article PMC5290461.

Target: GST-β1A-integrin tails (UniProt P05556)
Assay: pull-down; different concentrations of purified His-tagged talin head incubated with glutathione agarose beads preloaded with GST-β1A-integrin tails or GST; lysis buffer A (50 mM Tris-HCl pH 7.4, 1% NP-40, 150 mM NaCl, 1 mM EDTA, protease inhibitors) with 0.5 mg/ml bovine gelatin; bound protein on SDS-PAGE, Coomassie blue, quantified against standards on the same gel; Kd fitted with SigmaPlot

Sequence of UniProt P05556 (P05556 21-798): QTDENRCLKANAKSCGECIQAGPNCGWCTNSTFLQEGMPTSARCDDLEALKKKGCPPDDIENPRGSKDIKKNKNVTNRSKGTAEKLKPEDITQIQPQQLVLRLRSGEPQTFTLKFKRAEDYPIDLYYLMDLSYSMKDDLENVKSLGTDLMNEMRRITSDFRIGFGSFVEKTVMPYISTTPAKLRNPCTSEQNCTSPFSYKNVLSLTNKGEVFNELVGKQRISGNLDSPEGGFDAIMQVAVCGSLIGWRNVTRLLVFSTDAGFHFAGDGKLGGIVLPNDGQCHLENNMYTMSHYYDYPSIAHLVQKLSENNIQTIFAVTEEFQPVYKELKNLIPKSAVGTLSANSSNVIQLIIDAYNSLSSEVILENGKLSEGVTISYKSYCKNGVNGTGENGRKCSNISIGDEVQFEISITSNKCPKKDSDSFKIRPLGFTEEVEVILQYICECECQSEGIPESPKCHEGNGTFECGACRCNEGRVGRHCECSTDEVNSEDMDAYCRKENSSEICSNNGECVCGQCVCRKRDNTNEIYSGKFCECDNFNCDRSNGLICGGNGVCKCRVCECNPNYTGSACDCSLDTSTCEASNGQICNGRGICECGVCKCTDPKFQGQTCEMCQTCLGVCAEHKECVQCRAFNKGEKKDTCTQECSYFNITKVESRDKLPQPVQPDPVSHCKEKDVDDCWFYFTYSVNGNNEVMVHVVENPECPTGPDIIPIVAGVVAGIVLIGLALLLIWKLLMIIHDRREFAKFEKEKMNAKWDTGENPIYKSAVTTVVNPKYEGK

Row | Kd | Substance
1 | 0.88 µM | His-tagged talin1(1-446) WT (from UniProt Q9Y490 1-446) (domain or fragment)
2 | 0.35 µM | His-tagged talin2(1-449) WT (from UniProt Q9Y4G6 1-449) (domain or fragment)
